According to patent US20090061461A1 (published 2009):

B1: HA-tagged mPR mutant S56A/S180A (receptor)
chain: not shown
notes: also called mPR-3HA S56A/S180A; not shown: C-terminal 3xHA tag
B2: HA-tagged mPR mutant S180A (receptor)
chain: not shown
notes: also called mPR-3HA S180A; not shown: C-terminal 3xHA tag
B3: HA-tagged mPR mutant S56A (receptor)
chain: not shown
notes: also called mPR-3HA S56A; not shown: C-terminal 3xHA tag
B4: HA-tagged mPR mutant S56A/C128S/S180A (receptor)
chain: not shown
notes: not shown: C-terminal 3xHA tag

Target: T1, deleted in colorectal cancer (DCC) (human, UniProt P43146 26-1447)
T1 construct: Endogenous DCC of MCF-7 cells, detected by Western blot in the anti-HA immunoprecipitate; also called DCC/Unc-40
T1 sequence (P43146 26-1447 limits assumed): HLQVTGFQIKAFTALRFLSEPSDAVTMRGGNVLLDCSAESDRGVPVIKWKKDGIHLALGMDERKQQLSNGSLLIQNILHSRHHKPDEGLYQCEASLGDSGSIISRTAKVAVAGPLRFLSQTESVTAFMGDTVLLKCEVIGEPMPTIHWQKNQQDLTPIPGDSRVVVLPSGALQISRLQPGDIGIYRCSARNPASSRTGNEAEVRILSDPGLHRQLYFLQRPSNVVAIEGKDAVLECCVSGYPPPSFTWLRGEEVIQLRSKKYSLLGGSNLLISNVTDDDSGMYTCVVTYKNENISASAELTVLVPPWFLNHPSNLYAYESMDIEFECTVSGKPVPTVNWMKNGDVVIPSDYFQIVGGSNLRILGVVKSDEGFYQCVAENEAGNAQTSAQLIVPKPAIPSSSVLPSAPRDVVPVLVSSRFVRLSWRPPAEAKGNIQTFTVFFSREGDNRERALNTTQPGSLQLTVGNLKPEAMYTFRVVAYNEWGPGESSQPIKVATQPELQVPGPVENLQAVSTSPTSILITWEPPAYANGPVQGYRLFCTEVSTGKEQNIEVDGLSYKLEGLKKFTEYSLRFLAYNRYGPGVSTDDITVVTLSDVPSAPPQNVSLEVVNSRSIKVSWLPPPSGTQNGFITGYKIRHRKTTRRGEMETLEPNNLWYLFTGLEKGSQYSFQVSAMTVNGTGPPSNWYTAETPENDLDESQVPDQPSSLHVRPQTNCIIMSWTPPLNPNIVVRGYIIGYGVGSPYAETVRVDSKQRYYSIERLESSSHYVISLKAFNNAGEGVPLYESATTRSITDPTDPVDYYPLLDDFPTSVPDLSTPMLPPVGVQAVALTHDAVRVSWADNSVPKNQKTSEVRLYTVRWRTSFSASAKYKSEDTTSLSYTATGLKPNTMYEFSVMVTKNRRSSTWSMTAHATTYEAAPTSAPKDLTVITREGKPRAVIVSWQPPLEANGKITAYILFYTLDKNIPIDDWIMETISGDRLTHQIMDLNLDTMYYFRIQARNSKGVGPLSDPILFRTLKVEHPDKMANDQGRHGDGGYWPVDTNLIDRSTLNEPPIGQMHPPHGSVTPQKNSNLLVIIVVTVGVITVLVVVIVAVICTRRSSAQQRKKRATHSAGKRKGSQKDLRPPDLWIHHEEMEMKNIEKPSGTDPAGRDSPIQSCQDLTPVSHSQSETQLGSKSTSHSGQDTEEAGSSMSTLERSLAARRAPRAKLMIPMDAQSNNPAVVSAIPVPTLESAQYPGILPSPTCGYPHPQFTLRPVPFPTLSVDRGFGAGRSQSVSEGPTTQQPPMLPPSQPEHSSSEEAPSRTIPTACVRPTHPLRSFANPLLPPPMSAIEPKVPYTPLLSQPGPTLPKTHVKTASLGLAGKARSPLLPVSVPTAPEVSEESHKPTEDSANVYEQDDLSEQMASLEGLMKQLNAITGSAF
Assay: co-immunoprecipitation (anti-HA) from transfected MCF-7 cells, Western blot with anti-DCC AF5
Procedure: MCF-7 breast cancer cells were transfected by Lipofection with 5 μg of pcDNA3.1 containing HA-tagged mPR-wt, tagged mutant S56A, S180A, S56A/S180A, or tagged mutant S56A/C128S/[…]. After transfection of 2×10⁶ cells they were cultured in RPMI-Medium with 5% FCS. For IP the cells were trypsinized, counted and cell pellets were snap frozen and stored at −80° C.
Beads were separated by centrifugation and stored at −80° C. […] Incubation was performed for 16 h at 4° C. in a rotating tube. Then, beads were separated by centrifugation and washed twice with ice cold lysis buffer.
For PAGE gel-loading buffer/mercatoethanol was added to beads and the final supernatant, heated to 95° C. for 5 min and loaded on a 10% polyacrylamide gel. After separation of the proteins, western blot was performed onto nitrocellulose membrane. Transfer was controlled by Ponceau-red staining visualizing protein bands. After destaining the membranes were blocked for 16 h at 4° C. with 5% milkpowder/0.05% Tween. The next day membranes were incubated with mouse monoclonal anti-DCC antibody (1:20) (Biozol/Abcam) for 2 h at RT followed by biotinylated anti-mouse IgG antibody (Vecta Stain). For detection, membranes were incubated with streptavidin/HRP complex (DAKO) for 2 h at RT followed by enhanced chemiluminescence (ECL) treatment and measurement of chemiluminescence using a Lumiimager (Roche). As a loading control, membranes were incubated with rabbit polyclonal Actin I-19 antibody (Santa Cruz).

binding result | Binder
no binding | B1
no binding | B2
no binding | B3
no binding | B4
